We go through twelve molecules from US20250002574A1 (SUNSHINE LAKE PHARMA, published 2025).

Experiment [1] addresses T1, IL-11 (UniProt P20809 22-199, limits assumed).
T1 construct: also called IL-11 protein; IL-11 antigen
T1 sequence (looked up): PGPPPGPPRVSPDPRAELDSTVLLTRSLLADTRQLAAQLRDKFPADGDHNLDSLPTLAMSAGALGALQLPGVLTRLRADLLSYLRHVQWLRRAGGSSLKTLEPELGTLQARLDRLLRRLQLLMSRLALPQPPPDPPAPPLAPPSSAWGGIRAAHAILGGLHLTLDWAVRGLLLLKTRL
Briefly: flow, IL-11 + antibody on IL-11R cells; lower = more blocking.

Experiment [2] has as its target T1, IL-11. As to the kind of experiment: ELISA on IL-11, monoclonal hybridoma antibody.
Experiment [3] addresses T1, IL-11. As to the kind of experiment: BLI (Fortebio), antibody on AHC sensor, IL-11 as analyte. As to the method:
(§1) The determination method consisted of the following steps: the humanized antibody was captured by an AHC sensor. […] Finally, the sensor was regenerated with 10 mM glycine (pH 1.7) buffer.

Experiment [4] concerns the target T1, IL-11. As to the kind of experiment: BLI (Fortebio), antibody on AHC sensor, IL-11 3.91-125 nM. As to the method:
as §1

Experiment [5] deals with T2, IL-11 stably expressed on CHO cells (membrane-IL-11 CHO) (UniProt P20809 22-199).
T2 construct: whole, on cells
T2 sequence (looked up): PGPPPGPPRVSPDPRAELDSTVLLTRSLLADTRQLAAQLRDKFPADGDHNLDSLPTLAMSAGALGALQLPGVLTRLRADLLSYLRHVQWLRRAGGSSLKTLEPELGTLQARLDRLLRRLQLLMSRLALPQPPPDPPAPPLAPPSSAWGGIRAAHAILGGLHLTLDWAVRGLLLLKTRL
Briefly: flow cytometry on membrane-IL-11 CHO cells, detection with goat-anti-Fc-FITC. As to the method: The cells were washed 3 times with PBS, and then the flow secondary antibody Goat-anti-Fc-FITC (Abcam, ab98529) was added and detected by flow cytometry. The results were plotted as S-curves in FIG. 11.

The target of experiment [6] is T3, recombinant human protein antigen hu-IL-11-His tag (human, UniProt P20809 22-199).
T3 construct: also called IL-11-His protein; not shown: His tag
T3 sequence (looked up): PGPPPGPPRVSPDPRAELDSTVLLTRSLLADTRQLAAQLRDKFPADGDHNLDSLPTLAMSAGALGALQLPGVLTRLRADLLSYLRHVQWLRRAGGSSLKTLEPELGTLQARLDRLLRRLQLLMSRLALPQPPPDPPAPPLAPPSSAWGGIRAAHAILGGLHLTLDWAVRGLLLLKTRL
Briefly: flow cytometry competition: IL-11-His plus antibody on membrane-IL-11R CHO cells. As for the experimental part:
The inventors constructed a cell line (membrane-IL-11R CHO) that stably expressing IL-11R. […] Then 1.5*10\hat{ }5 membrane-IL-11R CHO cells (100 μL/well) were added and incubated for 1 h at room temperature. […] Then, the plate was incubated at 4° C. for 1 h, centrifuged at 1500 rpm for 5 min, washed three times with PBS, and resuspended cells in 180 μl PBS, and detected by flow cytometry.

Experiment [7] concerns the target T1, IL-11. As to the kind of experiment: SPR Biacore T200, antibody captured, IL-11 6.25-400 nM. As for the experimental part:
The measure method included the following steps of capturing the full-length humanized antibody at a flow rate of 10 μL/min. […] The binding time was 180 s, and the dissociation time was 600 s. Finally, the chip was regenerated with 10 mM glycine buffer.

B1: 3-15D5-6A1 (antibody, human IgG1, kappa, V domains shown)
VH: EVKLLESGGGLVQPGGSLKLSCAASGFDFRRYWMSWVRQAPGKGLEWIGQINPDSSMINYTPSLKDKFIISRDNAKNTLYLQMSEVRSEDTALYYCATYGHHATDSWGQGTSVTVSS
VL: DIVLTQSPASLAVSLGQRATISCRASESVDSYGNSFMHWYQQKPGQPPKLLIYRASNLESGIPARFSGSGSRTDFTLTINPVEADDVATYYCQQSNEDPFTFGSGTKLEIKR
For the molecule B1, the “FITC Mean” value in the experiment with IL-11 [1] amounted to 13600 mean fluorescence. In the experiment with IL-11 [2], this molecule came in with an OD450 of 1.51 OD450.

B2: 3-15D5-3A6 (antibody, human IgG1, kappa, V domains shown)
VH: QVTLKESGPGILQPSQTLSLTCSFSGFSLSSSGMSVGWIRQPSGKGLEWLAHIWWSDDKSYNPALKSRLTISKDTSNNQVFLKIASVVTADTATYYCAREGSLGYGLDYWGQGTTLTVSS
VL: DVLMTQTPLSLPVSLGDQASISCRSSQSIVHTDGNTYLEWYLQKPGQSPKLLIYKVSNRFSGVPDRFSGSGSGTDFTLKISRVEAEDLGVYYCFQGSHVPWTFGGGTKLEIKR
As to B2, the “FITC Mean” value with IL-11 [1] stood at 10900 mean fluorescence. This molecule also gave an OD450 with IL-11 [2] of 1.69 OD450.

B3: 3-7C9-1A6 (antibody, human IgG1, kappa, V domains shown)
VH: QVQLKQSGPGLVQPSQSLSITCTVSGFSLTNYGVHWVRQSPGKGLEWLGAIWRGGSTDYNAAFMSRLSITKDNSKSQVFFKMNSLQPDDTAIYYCAKNLYGPAAMDYWGQGTSVTVSS
VL: DIQMNQSPSSLSASLGDTITITCHANQNIYVWLSWYQQKPGNIPKLLIYEASNLHTGVPSRFSGSGSGTGFTLTISSLQPEDIATYYCQQGQSYPYTFGGGTKLEIKR
As to B3, in the experiment with IL-11 [1], the “FITC Mean” value stood at 3150 mean fluorescence. In the experiment with IL-11 [2], this molecule yielded an OD450 of 1.6 OD450.

B4: MIL-11 mab-02 (antibody, IgG1, V domains shown)
VH: QVQLVQSGAEVKKPGASVKVSCKASDYTFTNYWLGWVRQAPGQGLEWMGHIYPGGGYTNYNEKFKGRVTMTRDTSTSTVYMELSSLRSEDTAVYYCARVSSGNDALDFWGQGTLVTVSS
VL: EIVLTQSPATLSLSPGERATLSCRASESVDEYGISFMNWFQQKPGQAPRLLIYSASNQGSGIPARFSGSGSGTDFTLTISSLEPEDFAVYFCQQSKELPWTFGGGTKLEIK
notes: also called 2E2 full-length antibody
For B4, the “fold increase of affinity against the humanized antibody VH1+VL3” value in the experiment with IL-11 [3] was found to be 10 fold. In addition, in the experiment with IL-11 [4], the affinity, expressed as Kd, was 0.242 nM; the off-rate constant (koff) is 0.00013 s⁻¹; the kon came to 535000 M⁻¹ s⁻¹. In addition, the “EC50 (read off the curve)” value in experiment [5] is roughly 2 µg/mL.

B5: VH1+VL3 full-length humanized antibody (antibody, human IgG1, kappa, V domains shown)
VH: QVQLVQSGAEVKKPGASVKVSCKASDYTFTNYWLGWVRQAPGQGLEWMGHIYPGGGYTNYNEKFKGRVTMTRDTSTSTVYMELSSLRSEDTAVYYCARVRSGNDALDFWGQGTLVTVSS
VL: EIVLTQSPATLSLSPGERATLSCRASESVDEYGISFMNWFQQKPGQAPRLLIYSASNQGSGIPARFSGSGSGTDFTLTISSLEPEDFAVYFCQQSKEVPWTFGGGTKLEIKR
notes: IgG form, IgG1 Fc; also called VH1+VL3 mAb; CPD-2
As to B5, in the experiment with IL-11 [4], binding was put at a Kd of 2.84 nM, the koff turned out to be 0.000609 s⁻¹ and the on-rate (kon) worked out at 214000 M⁻¹ s⁻¹. Also, the “EC50 (read off the curve)” value in experiment [5] is roughly 2 µg/mL. In addition, the EC50 in experiment [6] came to 10.5 µg/mL. In the experiment with IL-11 [7], this molecule showed a Kd of 9.03 nM, a koff of 0.000474 s⁻¹ and a kon of 52600 M⁻¹ s⁻¹.

B6: MIL-11 mab-03 (antibody, IgG1, V domains shown)
VH: QVQLVQSGAEVKKPGASVKVSCKASDYTFTNYWLGWVRQAPGQGLEWMGHIYPGGGYTNYNEKFKGRVTMTRDTSTSTVYMELSSLRSEDTAVYYCARVSSGNDALDFWGQGTLVTVSS
VL: EIVLTQSPATLSLSPGERATLSCRASESVDEYGISFMNWFQQKPGQAPRLLIYSASNQASGIPARFSGSGSGTDFTLTISSLEPEDFAVYFCQQSKELPWTFGGGTKLEIK
notes: also called 1F12 full-length antibody
As to B6, the “fold increase of affinity against the humanized antibody VH1+VL3” value with IL-11 [3] stood at 10 fold. In the experiment with IL-11 [4], binding was put at a Kd of 0.262 nM, the koff was found to be 0.000152 s⁻¹ and the kon came to 580000 M⁻¹ s⁻¹. Also, in experiment [5], the 50% effective concentration (EC50 (read off the curve)) was roughly 2 µg/mL.

B7: VH1+VL2 full-length humanized antibody (antibody, human IgG1, kappa, V domains shown)
VH: QVQLVQSGAEVKKPGASVKVSCKASDYTFTNYWLGWVRQAPGQGLEWMGHIYPGGGYTNYNEKFKGRVTMTRDTSTSTVYMELSSLRSEDTAVYYCARVRSGNDALDFWGQGTLVTVSS
VL: EIVLTQSPATLSLSPGERATLSCRASESVDEYGISFMNWYQQKPGQAPRLLIYSASNQGSGIPARFSGSGSGTDFTLTISSLEPEDFAVYFCQQSKEVPWTFGGGTKLEIKR
notes: IgG form, IgG1 Fc
B7: the EC50 in experiment [6] came out at 11.6 µg/mL. In the experiment with IL-11 [7], this molecule gave an equilibrium dissociation constant (Kd) of 12 nM, a koff of 0.000597 s⁻¹ and a kon of 49800 M⁻¹ s⁻¹.

B8: MIL-11 mab-01 (antibody, IgG1, V domains shown)
VH: QVQLVQSGAEVKKPGASVKVSCKASDYTFTNYWLGWVRQAPGQGLEWMGHIYPGGGYTNYNEKFKGRVTMTRDTSTSTVYMELSSLRSEDTAVYYCARVSSGNDALDLWGQGTLVTVSS
VL: EIVLTQSPATLSLSPGERATLSCRASESVDEYGISFMNWFQQKPGQAPRLLIYSGSNEGSGIPARFSGSGSGTDFTLTISSLEPEDFAVYFCNQSKEVPWTFGGGTKLEIK
notes: also called 1E12 full-length antibody
B8: in the experiment with IL-11 [4], the Kd came to 1.17 nM, the off-rate constant (koff) came to 0.000584 s⁻¹ and the kon came to 501000 M⁻¹ s⁻¹. Also, the “EC50 (read off the curve)” value in experiment [5] is roughly 3 µg/mL.

B9: VH1+VL4 full-length humanized antibody (antibody, human IgG1, kappa, V domains shown)
VH: QVQLVQSGAEVKKPGASVKVSCKASDYTFTNYWLGWVRQAPGQGLEWMGHIYPGGGYTNYNEKFKGRVTMTRDTSTSTVYMELSSLRSEDTAVYYCARVRSGNDALDFWGQGTLVTVSS
VL: EIVLTQSPATLSLSPGERATLSCRASESVDEYGISFMNWFQQKPGQAPRLLIYSASNQGSGIPARFSGSGSGTDFTLTISSLEPEDFAMYFCQQSKEVPWTFGGGTKLEIKR
notes: IgG form, IgG1 Fc
For the molecule B9, the 50% effective concentration (EC50) in experiment [6] was determined as 12.5 µg/mL. In the experiment with IL-11 [7], the Kd turned out to be 10 nM, the koff is 0.000545 s⁻¹ and the on-rate constant (kon) was determined as 54300 M⁻¹ s⁻¹.

B10: full-length chimeric antibody constructed by 5-20E11-5F2 (Example 15) (antibody, human IgG1, kappa, V domains shown)
VH: QVQLQQSGAELVRPGTSAKISCKASDYTFTNYWLGWLKQRPGHGLEWIGHIYPGGGYTNYNEKFKGKATLTADTSSSTAYMQLSSLTSEDSAVYFCARVRSGNDALDFWGQGTSVTVSS
VL: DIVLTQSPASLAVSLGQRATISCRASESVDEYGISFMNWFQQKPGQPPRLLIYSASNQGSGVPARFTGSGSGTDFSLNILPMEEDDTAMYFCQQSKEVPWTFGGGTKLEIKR
notes: also called CPD-1; VH+VL
As for B10, the EC50 in experiment [6] amounted to 7.54 µg/mL. Moreover, in the experiment with IL-11 [7], binding was put at a Kd of 6.41 nM, the koff worked out at 0.000433 s⁻¹ and the kon stood at 67600 M⁻¹ s⁻¹.

B11: 3-2B5-3D2 (antibody, human IgG1, kappa, V domains shown)
VH: QVQLKQSGPGLVLPSQSLSITCTVSGFSLTSYGVHWFRQSPGTGLEWLGVIWSGGITDYNATFIPRLSISKDNSKSQVFFKMNSLQADDTAIYYCARNFDGYYYSIDYWGQGTSVTVSS
VL: DIQMTQTTSSLSASLGDRVTISCRASQDISNSLNWYQQKPDGTVKLLIYYTSRLHSGVPSRFTGSGSGTDYSLTISNLEQEDIATYFCQQGNTLPLTFGAGTKLELKR
Take B11: the “FITC Mean” value in the experiment with IL-11 [1] was found to be 15300 mean fluorescence. This molecule also yielded an OD450 with IL-11 [2] of 1.61 OD450.

B12: 3-9E1-3A2 (antibody, human IgG1, kappa, V domains shown)
VH: QIQLVQSGPELKKPGETVNISCRASGDTFTNYAVNWVKQAPGKGLKWMGWIDTYTGDPTYADDLKGRFAFSLETSATTAYLQINNLKNEDTATYFCAGDTWFAYWGQGTLVTVSA
VL: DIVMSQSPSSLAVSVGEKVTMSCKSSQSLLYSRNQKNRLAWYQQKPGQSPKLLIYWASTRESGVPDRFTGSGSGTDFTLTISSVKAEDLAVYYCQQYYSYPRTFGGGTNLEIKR
Regarding B12, the “FITC Mean” value in the experiment with IL-11 [1] came out at 9070 mean fluorescence. The OD450 in the experiment with IL-11 [2] came to 1.54 OD450.
